Measured values from patent publication US20130266566A1 (AbbVie / Abbott, published 2013).
Where a chain is given by its changes, count along the chain named.

T1: mouse PAI-1 (mouse, UniProt P22777 24-401)
T1 sequence: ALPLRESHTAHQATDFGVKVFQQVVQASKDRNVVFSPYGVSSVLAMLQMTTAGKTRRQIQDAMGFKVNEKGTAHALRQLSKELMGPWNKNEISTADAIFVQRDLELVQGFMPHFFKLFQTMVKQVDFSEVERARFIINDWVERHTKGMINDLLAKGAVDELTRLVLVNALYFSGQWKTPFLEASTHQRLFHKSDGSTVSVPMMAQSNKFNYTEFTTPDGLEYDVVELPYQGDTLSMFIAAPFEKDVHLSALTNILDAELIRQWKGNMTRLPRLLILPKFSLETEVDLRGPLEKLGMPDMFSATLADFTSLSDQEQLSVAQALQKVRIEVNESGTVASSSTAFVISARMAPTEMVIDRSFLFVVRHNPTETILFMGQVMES

T2: rat PAI-1 (rat, UniProt P20961 24-402)
T2 sequence: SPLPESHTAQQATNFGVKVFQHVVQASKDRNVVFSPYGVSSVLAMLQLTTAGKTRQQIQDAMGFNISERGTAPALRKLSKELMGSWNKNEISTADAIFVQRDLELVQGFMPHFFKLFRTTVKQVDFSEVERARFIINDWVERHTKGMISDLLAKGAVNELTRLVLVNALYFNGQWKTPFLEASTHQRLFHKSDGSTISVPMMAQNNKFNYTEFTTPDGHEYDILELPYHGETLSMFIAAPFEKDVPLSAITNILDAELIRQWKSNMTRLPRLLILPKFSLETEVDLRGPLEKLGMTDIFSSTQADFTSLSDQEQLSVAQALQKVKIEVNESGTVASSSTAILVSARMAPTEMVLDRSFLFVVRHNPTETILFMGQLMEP

B1: rabbit PAI-1 (other)
chain: SYPHQPQLTTAGETQQQIQAAMRFKIDEQSTAPALRHLHKELMGPWNKDEISTTDAIFVQRDLKLVQGFMPHFFRLFRTTVKQVDFSDVQRARFIINDWVERHTKGMISDLLGEGAMDQLTRLLLVNALYFNGQWKTPFSKSGTHHRLFHKSDGSTISVPMMAQTNKFNYTEFLTPDGHYYDILELPYHGETLSMFIAAPYEKQVPLSALTNILSAQLISQWKGNMTRVTRLLVLPKFSLESEVDLRAPLENLGMTDMFRPGQADFSNLSDQELLHVSRALQKVKIEVNESGTMASSSTVILVSARMAPEEIIMDRPFLFVVRHNPTGTILFLGQVMEL
B2: Antibody 16 scFv (scFv)
chain: QVQLVQSGAEVKKPGSSVKVSCKASGGTFSSYAISWVRQAPGQGLEWMGGIIPTFGTANYAQKFQGRVTITADESTSTAYMELSSLRSEDTAVYYCAREKRQWLEGHFDYWGRGTLVTVSSDIQMTQSPSTLSASVGDRVTITCRASESIYHSLAWYQQKPGKAPKLLIYKASSLASGVPSRFSGSRSGTEFTLTISSLQPDDFATYYCQQYSNYPLTFGGGTKVEIK
B3: Antibody 08 scFv (scFv)
chain: B2 chain with K100R, S149G, S153N
B4: Antibody 20 IgG1, not germlined (antibody, V domains shown)
VH: QVQLQQSGAEVKKPGSSVKVSCKASGGTFSSYAISWVRQAPGQGLEWMGGIIPTFGTANYAQKFQGRVTITADESTSTAYMELSSLRSEDTAVYYCAREKRQWLEGHFDYWGRGTLVTVSS
VL: DIQMTQSPSTLSASVGDRVTITCRASEGIYHELAWYQQKPGKAPKLLIYRASSLASGVPSRFSGSRSGTEFTLTISSLQPDDFATYYCQQYSDYPLTFGGGTKVEIK
notes: IgG1; also called Ab 20
B5: Antibody 27 IgG1, not germlined (antibody, V domains shown)
VH: B4 VH with T28A, S85G, L116P
VL: B4 VL with T10F, V15I, E32N, V58A, R66G, E70D, D93N, V104L
notes: IgG1; also called Ab 27
B6: PICK167_A01-fgl IgG1 (antibody, V domains shown)
VH: B4 VH with Q5V, K100R
VL: DIQMTQSPSTLSASVGDRVTITCRASEGIYHNLAWYQQKPGKAPKLLIYKASSLASGVPSRFSGSRSGTEFTLTISSLQPDDFATYYCQQYSNYPLTFGGGTKVEIKR

How the values were obtained:
[1] = target: T3, Antibody 16 IgG1, not germlined; assay: competition binding assay: Antibody 16 IgG adsorbed to the plate, biotinylated active human PAI-1 plus a titration of the unlabelled competitor, streptavidin-Europium detection
T3 construct: IgG1; also called Ab 16

mouse PAI-1 [2] = target: T1, mouse PAI-1; assay: cell-based or functional assay
rat PAI-1 [3] = target: T2, rat PAI-1; assay: cell-based or functional assay
mouse PAI-1 [4] = target: T1, mouse PAI-1; assay: cell-based or functional assay; remark: listed apart in the source
rat PAI-1 [5] = target: T2, rat PAI-1; assay: cell-based or functional assay; remark: listed apart in the source
[6] = target: T4, active human PAI-1, recombinant, wild-type, non-glycosylated (E. coli) (human, UniProt P05121 24-402); assay: cell-based or functional assay
cynomolgus PAI-1 [7] = target: T5, cynomolgus PAI-1 (cynomolgus, UniProt P05121 24-402 (human entry), limits assumed); assay: cell-based or functional assay
[8] = target: T4, active human PAI-1, recombinant, …; assay: cell-based or functional assay; remark: listed apart in the source
cynomolgus PAI-1 [9] = target: T5, cynomolgus PAI-1; assay: cell-based or functional assay; remark: listed apart in the source
mouse PAI-1 [10] = target: T1, mouse PAI-1; assay: cell-based or functional assay; remark: listed apart in the source
rabbit PAI-1 = target: B1; assay: competition ELISA, IgG on plate, biotinylated active human PAI-1 against titrated unlabelled competitor
mouse PAI-1 [11] = target: T1, mouse PAI-1; assay: as above
latent human PAI-1 = target: T6, latent human PAI-1 (human, UniProt P05121 24-402); assay: as above
T6 construct: also called latent PAI-1

rat PAI-1 [12] = target: T2, rat PAI-1; assay: as above
rat PAI-1 [13] = target: T2, rat PAI-1; assay: cell-based or functional assay; remark: listed apart in the source

| HT-1080 Exo PAI-1 (IC50 in nM) mouse (mouse PAI-1 [4]) [nM] | IC50, cyno chromogenic assay (FIG. 2b) (cynomolgus PAI-1 [7]) [nM] | Chromogenic IC50 ratio cyno/human (cynomolgus PAI-1 [9]) [fold] | Chromogenic IC50 ratio mouse/human (mouse PAI-1 [2]) [fold] | Chromogenic IC50 ratio rat/human (rat PAI-1 [3]) [fold] | IC50 ratio rabbit/wt (rabbit PAI-1) [fold] | IC50 ratio mouse/wt (mouse PAI-1 [11]) [fold] | IC50 ratio latent/wt (latent human PAI-1) [fold] | IC50 ratio rat/wt (rat PAI-1 [12]) [fold] | Binder | other results |
| --- | --- | --- | --- | --- | --- | --- | --- | --- | --- | --- |
|  |  |  |  |  |  |  |  |  | B1 | IC50 (read off the curve) [1]: ~3 nM |
| 17.6 | 0.8 |  |  |  |  |  |  |  | B2 | Chromogenic (IC50 in nM) mouse (mouse PAI-1 [2]): 4.3 nM; Chromogenic (IC50 in nM) rat (rat PAI-1 [3]): 5.6 nM; HT-1080 Exo PAI-1 (IC50 in nM) rat (rat PAI-1 [5]): 52.6 nM; HT-1080 Exo PAI-1 (IC50 in nM) human [6]: 16.9 nM; IC50, human chromogenic assay (FIG. 2a) [8]: 3.6 nM |
| 26.2 | 0.8 | 0.3 |  |  |  |  |  |  | B3 | Chromogenic (IC50 in nM) cyno (cynomolgus PAI-1 [9]): 1 nM; IC50, mouse chromogenic assay (FIG. 2d) (mouse PAI-1 [10]): 2.6 nM |
|  |  | 0.5 | 0.9 | 1.8 | 9.1 | 7.6 | 7.5 | 2.3 | B4 |  |
|  |  |  | 3.3 | 5.4 | 85 | 6.1 | 6.8 | 1.2 | B5 |  |
|  |  |  |  |  |  |  |  |  | B6 | pIC50, HT1080 plasminogen activation assay (rat PAI-1 [13]): 7.64 pIC50; pIC50, HT1080 plasminogen activation assay [8]: 7.87 pIC50 |
